# Results: paper PMC11240982, “Recapitulation of HIV-1 Neutralization Breadth in Plasma by the Combination of Two Broadly Neutralizing Antibodies from Different Lineages in the Same SHIV-Infected Rhesus Macaque” (International Journal of Molecular Sciences, 2024)
# Molecular target: T1, BG505 Env UFO (uncleaved prefusion-optimized) trimer with Avi tag (HIV-1 clade A, BG505, stabilised)
# T1 construct: also called BG505 UFO trimer; BG505 UFO
# Assay: BLI; antibody (20 µg/mL) immobilised on Anti-hIgG-Fc Capture (AHC) biosensors; serially diluted BG505 UFO trimer or V3 peptide as analyte; OCTET Red96
# Settings: both partners purified
binder,measurement,value
"JT18 (antibody, V domains shown, IGHV5-20*02, IGHJ5-2*02, IGHD1-44*02, CDR3 12 aa; constant region added, not specified; IGLV1S1*01, IGLJ3*01, CDR3 11 aa; Recombinant IgG; constant regions not specified (captured on anti-human IgG Fc biosensors, detected with anti-monkey IgG); source: HEK293T, co-transfected linear expression fragments, in supernatant (screen); Expi293F, co-transfected plasmids, purified (protein A agarose)) VH: EVQLVQSGAEVKRPGESLRISCKTSGYDFTDYWINWVRQMPGKGLEWVGMVYPSDSETAYSPSFRGRVTISADTSISTSYLQWTSLEASDTATYYCARPVSGTFALDVWGRGVLVAVSS VL: QSVLTQPPSMSGAPGQRVTMSCTGGNSNIGANLYVQWYQQVPGTAPRLLIYEDNQRPSGVSDRFSGSRSGSSASLTITGLQSEDEADYYCQSYDNSLSTVLFGGGTRLTVL",Kd,4.03 nM
